# B1: His-tagged human Sar1A (H79G) [human] / RRFR peptides (first intracellular loop of Fzd6) [mouse] (parent complex)
# chain 1: not shown
# chain 2: VRRFRYPERPC
# Variants of: B1
# Test: peptide pull-down (peptides linked to thiopyridone-Sepharose 6B), immunoblot quantification; n = 3; parent: 1; read off a plot
row,ratio to parent,Variant
1,~0.08,"chain 2 R2A, chain 2 R3A, chain 2 R5A"

# Source: article PMC7335806 (2020)
